Measurements published in FireProtDB (doi:10.1016/0022-2836(92)90557-z).

B1: Ribonuclease, P00648 (parent)
chain: MMKMEGIALKKRLSWISVCLLVLVSAAGMLFSTAAKTETSSHKAHTEAQVINTFDGVADYLQTYHKLPDNYITKSEAQALGWVASKGNLADVAPGKSIGGDIFSNREGKLPGKSGRTWREADINYTSGFRNSDRILYSSDWLIYKTTDHYQTFTKIR

Variants of: B1
Details: Bacillus amyloliquefaciens; pH 6.3; 25 °C; Urea; Fluorescence; MES 1.00 M; NaCl 613 mM; reversible: yes; structure 1BNI; whole UniProt chain shown

Variant: MMKMEGIALKKRLSWISVCLLVLVSAAGMLFSTAAKTETSSHKAHTEAQVINTFAGVAAYLQTYHKLPDNYITKSEAQALGWVASKGNLADVAPGKSIGGDIFSNREGKLPGKSGRTWREADINYTSGFRNSDRILYSSDWLIYKTTDHYQTFTKIA [D55A D59A R157A]
- ddG of mutation (higher = less stable): -0.11 kcal/mol
- denaturant midpoint (higher = more stable): 4.63 M

Variant: MMKMEGIALKKRLSWISVCLLVLVSAAGMLFSTAAKTETSSHKAHTEAQVINTFDGVADYLQTYHKLPDNYITKSEAQALGWVASKGNLADVAPGKSIGGDIFSNREGKLPGKSGRTWREADINYTSGFRNSDRILYSSDWLIYKTTDHYQTFTKIA [R157A]
- ddG of mutation (higher = less stable): 0.46 kcal/mol
- denaturant midpoint (higher = more stable): 4.37 M

Variant: MMKMEGIALKKRLSWISVCLLVLVSAAGMLFSTAAKTETSSHKAHTEAQVINTFAGVAAYLQTYHKLPDNYITKSEAQALGWVASKGNLADVAPGKSIGGDIFSNREGKLPGKSGRTWREADINYTSGFRNSDRILYSSDWLIYKTTDHYQTFTKIR [D55A D59A]
- ddG of mutation (higher = less stable): 0.89 kcal/mol
- denaturant midpoint (higher = more stable): 4.16 M

Variant: MMKMEGIALKKRLSWISVCLLVLVSAAGMLFSTAAKTETSSHKAHTEAQVINTFAGVADYLQTYHKLPDNYITKSEAQALGWVASKGNLADVAPGKSIGGDIFSNREGKLPGKSGRTWREADINYTSGFRNSDRILYSSDWLIYKTTDHYQTFTKIR [D55A]
- ddG of mutation (higher = less stable): 0.99 kcal/mol
- denaturant midpoint (higher = more stable): 4.12 M

Variant: MMKMEGIALKKRLSWISVCLLVLVSAAGMLFSTAAKTETSSHKAHTEAQVINTFAGVADYLQTYHKLPDNYITKSEAQALGWVASKGNLADVAPGKSIGGDIFSNREGKLPGKSGRTWREADINYTSGFRNSDRILYSSDWLIYKTTDHYQTFTKIA [D55A R157A]
- ddG of mutation (higher = less stable): 0.47 kcal/mol
- denaturant midpoint (higher = more stable): 4.36 M

Variant: MMKMEGIALKKRLSWISVCLLVLVSAAGMLFSTAAKTETSSHKAHTEAQVINTFDGVAAYLQTYHKLPDNYITKSEAQALGWVASKGNLADVAPGKSIGGDIFSNREGKLPGKSGRTWREADINYTSGFRNSDRILYSSDWLIYKTTDHYQTFTKIR [D59A]
- ddG of mutation (higher = less stable): 0.34 kcal/mol
- denaturant midpoint (higher = more stable): 4.42 M
